Data: publication PMC3395577

Substrate: O=[N+]([O-])c1ccc(O[C@@H]2O[C@H](CO)[C@@H](O)[C@H](O)[C@H]2O)cc1
Assay: purified protein
Settings: 50 mM imidazole-potassium buffer pH 6.4, 70°C, Table 2 prints 0.63

B1: BGL (β-glucosidase, Tthe_1813) (Thermoanaerobacterium thermosaccharolyticum DSM 571) (protein)
chain: MSDFNKDFLFGVATASYQVEGAYNEDGRSMSIWDTFCRQDGKVYKGHNGDVACDHYHLYKDDVKMMKDLGIEAYRFSIAWPRIFPEKGHYNPKGIDFYKRLTDELLKNDIKPFVTIYHWDLPQWADDLGGWLNREVVDWFGEYVSKLFNELGGYIRNWITLNEPWCSSFLSYFIGEHAPGHKDLGEAVLVSHNLLLAHGKAVEIFRDINSSDSKIGITLNLNEVFPATDSPEDKAAARIADGFQNRWFLDPIFKGEYPKDMLELFGKYAKTDFITDGDLKRISQKLDFLGVNYYTRAVVKKGNDGILNAEQIDVDNEKTEMGWEVYPESLYNILMRLKNEYTFDLPLYITENGAAYKDVVSDDGHVHDEKRVEFLKKHFKQAKRFIDDGGNLRGYFVWSLMDNFEWAHGYSKRFGIVYVDYETEKRILKDSALWYKNLISTRTI
How did the Km turn out when B1 was run?
The Km was 620 µM.
